Measurements: article PMC5892938, “SARNAclust: Semi-automatic detection of RNA protein binding motifs from immunoprecipitation data”
Changes are numbered by the printed parent chain.

B1: consensus (structured_RNA)
RNA: GGUCACGUCUCAAUCAACUCCCAAAGGCCCUUUUCAGGGCCACCCAUCAACAGCUCGCAGUCAAG
B2: consensus (structured_RNA)
RNA: B1 RNA with C30U, U33C, G37A
B3: consensus (structured_RNA)
RNA: B1 RNA with C28U, C35A, G39A
B4: consensus (structured_RNA)
RNA: B1 RNA with C30U
B5: consensus (structured_RNA)
RNA: B1 RNA with C28U, C29U, C30U, C35G, G37A, G38A, G39A
B6: consensus (structured_RNA)
RNA: B1 RNA with C28U, C29U, U33C, C35U, G38A
B7: consensus (structured_RNA)
RNA: B1 RNA with C29U, U33C, C35G
B8: consensus (structured_RNA)
RNA: B1 RNA with C28U, C29U, U33C, C35U, G39A
B9: consensus (structured_RNA)
RNA: B1 RNA with C30U, C35A
B10: consensus (structured_RNA)
RNA: B1 RNA with C28U, C29U, C30U, C35U, G37A, G38A
B11: consensus (structured_RNA)
RNA: B1 RNA with C28U, C29U, C30U, U33C, G37A, G38A
B12: consensus (structured_RNA)
RNA: B1 RNA with C30U, U33C, C35A
B13: consensus (structured_RNA)
RNA: B1 RNA with C28U, C29U, C35U
B14: consensus (structured_RNA)
RNA: B1 RNA with C28U, G39A
B15: consensus (structured_RNA)
RNA: B1 RNA with C28U, C30U, U33C, C35G, G37A
B16: consensus (structured_RNA)
RNA: B1 RNA with C28U, C29U, C30U, U33C, C35G, G37A, G38A, G39A
B17: consensus (structured_RNA)
RNA: B1 RNA with C28U, U33C, C35G
B18: consensus (structured_RNA)
RNA: B1 RNA with C29U, C30U, U33C, C35G, G37A
B19: consensus (structured_RNA)
RNA: B1 RNA with C29U, C30U
B20: consensus (structured_RNA)
RNA: B1 RNA with C28U, C29U, C30U, U33C, C35U, G37A, G38A
B21: consensus (structured_RNA)
RNA: B1 RNA with C29U, C30U, C35A
B22: consensus (structured_RNA)
RNA: B1 RNA with C30U, U33C
B23: consensus (structured_RNA)
RNA: B1 RNA with C28U, C30U, G39A
B24: consensus (structured_RNA)
RNA: B1 RNA with C28U, C30U, C35A, G39A
B25: consensus (structured_RNA)
RNA: B1 RNA with C30U, C35U, G37A
B26: consensus (structured_RNA)
RNA: B1 RNA with C30U, C35U
B27: consensus (structured_RNA)
RNA: B1 RNA with C29U, C30U, G38A
B28: consensus (structured_RNA)
RNA: B1 RNA with C29U, C30U, C35A, G38A
B29: consensus (structured_RNA)
RNA: B1 RNA with C28U, C30U, U33C, C35A, G39A
B30: consensus (structured_RNA)
RNA: B1 RNA with C28U, C29U, C30U, C35G, G37A, G38A
B31: consensus (structured_RNA)
RNA: B1 RNA with C29U, C30U, U33C, C35A
B32: consensus (structured_RNA)
RNA: B1 RNA with C28U, C30U, C35A
B33: consensus (structured_RNA)
RNA: B1 RNA with C30U, C35G
B34: consensus (structured_RNA)
RNA: B1 RNA with C29U, C30U, U33C
B35: consensus (structured_RNA)
RNA: B1 RNA with C29U, C30U, U33C, C35A, G38A
B36: consensus (structured_RNA)
RNA: B1 RNA with C29U
B37: consensus (structured_RNA)
RNA: B1 RNA with C28U, C30U, U33C, G39A
B38: consensus (structured_RNA)
RNA: B1 RNA with C29U, C30U, C35U
B39: consensus (structured_RNA)
RNA: B1 RNA with C30U, U33C, C35U
B40: consensus (structured_RNA)
RNA: B1 RNA with C28U, C30U
B41: consensus (structured_RNA)
RNA: B1 RNA with C28U, C30U, U33C, C35A
B42: consensus (structured_RNA)
RNA: B1 RNA with C28U, C30U, C35U, G39A
B43: consensus (structured_RNA)
RNA: B1 RNA with C29U, C30U, U33C, G38A
B44: consensus (structured_RNA)
RNA: B1 RNA with C28U, C30U, U33C
B45: consensus (structured_RNA)
RNA: B1 RNA with C28U, C29U, C30U, G38A, G39A
B46: consensus (structured_RNA)
RNA: B1 RNA with C29U, C30U, U33C, C35U
B47: consensus (structured_RNA)
RNA: B1 RNA with C30U, U33C, C35U, G37A
B48: consensus (structured_RNA)
RNA: B1 RNA with C29U, C30U, C35U, G38A
B49: consensus (structured_RNA)
RNA: B1 RNA with C28U, C30U, U33C, C35U, G39A
B50: consensus (structured_RNA)
RNA: B1 RNA with C28U, C29U, C30U, U33C, C35A, G38A, G39A
B51: consensus (structured_RNA)
RNA: B1 RNA with C28U, C29U, C30U, C35A, G38A, G39A
B52: consensus (structured_RNA)
RNA: B1 RNA with C28U, C30U, C35U
B53: consensus (structured_RNA)
RNA: B1 RNA with C28U, C29U, C30U, G38A
B54: consensus (structured_RNA)
RNA: B1 RNA with C35A
B55: consensus (structured_RNA)
RNA: B1 RNA with C28U, C30U, C35A, G37A, G39A
B56: consensus (structured_RNA)
RNA: B1 RNA with C28U, C30U, U33C, G37A, G39A
B57: consensus (structured_RNA)
RNA: B1 RNA with C29U, C30U, G37A, G38A
B58: consensus (structured_RNA)
RNA: B1 RNA with C29U, C35A, G38A

Molecular target: GST-SBP-SLBP (stem-loop binding protein) (Homo sapiens, UniProt Q14493 1-270)
Assay: targeted RNA Bind-n-Seq; RBNS binding buffer: 25 mM Tris pH 7.5, 150 mM KCl, 3 mM MgCl2, 0.1% Tween, 0.5 mg/mL BSA, 1 mM DTT; 27 nM protein, 750 pM RNA pool; temperature not stated; high values mean tight binding
Details: protein: recombinant; tags: N-terminal GST and SBP (pGEX6P1-SBP)
Method in brief: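 A designed RNA oligo pool, transcribed with T7, was present at 750 pM and incubated in RBNS binding buffer with 27 nM of GST-SBP-tagged protein that had been expressed in Rosetta(DE3) pLysS E. coli and purified with glutathione. After reverse transcription with a 10-nucleotide barcoded primer and PCR, the bound RNA was sequenced as 200-cycle paired-end reads on a MiSeq. Each sequence's binding signal is the DEseq binary-logarithm fold change in read counts, computed after joining reads with FLASH, aligning with HISAT2 and collapsing by barcode.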

Binder	binding signal [log2 fold change]
B1	3.92 ± 0.166
B2	3.84 ± 0.117
B3	3.61 ± 0.128
B4	2.4 ± 0.137
B5	2.28 ± 0.151
B6	2.28 ± 0.146
B7	2.28 ± 0.154
B8	2.26 ± 0.144
B9	2.24 ± 0.139
B10	2.23 ± 0.157
B11	2.22 ± 0.14
B12	2.22 ± 0.143
B13	2.15 ± 0.148
B14	3.59 ± 0.127
B15	2.15 ± 0.13
B16	2.15 ± 0.131
B17	2.11 ± 0.151
B18	2 ± 0.133
B19	1.99 ± 0.171
B20	1.97 ± 0.127

Binder	binding signal [log2 fold change]
B21	1.95 ± 0.161
B22	1.93 ± 0.129
B23	1.9 ± 0.145
B24	1.91 ± 0.158
B25	3.59 ± 0.129
B26	1.9 ± 0.154
B27	1.75 ± 0.155
B28	1.64 ± 0.15
B29	1.6 ± 0.134
B30	1.56 ± 0.147
B31	1.52 ± 0.156
B32	1.43 ± 0.177
B33	1.42 ± 0.169
B34	1.31 ± 0.138
B35	1.33 ± 0.16
B36	3.57 ± 0.122
B37	1.31 ± 0.141
B38	1.3 ± 0.179
B39	1.28 ± 0.157
B40	1.25 ± 0.15

Binder	binding signal [log2 fold change]
B41	1.09 ± 0.185
B42	0.994 ± 0.148
B43	0.979 ± 0.14
B44	0.935 ± 0.161
B45	0.928 ± 0.165
B46	0.933 ± 0.168
B47	3.55 ± 0.131
B48	0.854 ± 0.146
B49	0.816 ± 0.166
B50	0.796 ± 0.151
B51	0.759 ± 0.157
B52	0.724 ± 0.177
B53	0.623 ± 0.163
B54	3.52 ± 0.16
B55	3.5 ± 0.12
B56	3.5 ± 0.113
B57	3.5 ± 0.119
B58	3.5 ± 0.152
